PMC11045668 (Nature chemical biology, 2023)

Target: the molecule itself
Test: SEC

B1: soluble transhydrogenase from E. coli (EcSTH), recombinant, with N-terminal Hisx6-tag and C-terminal FLAG-tag (enzyme, Escherichia coli, UniProt P27306 1-466, looked up)
chain: MPHSYDYDAIVIGSGPGGEGAAMGLVKQGARVAVIERYQNVGGGCTHWGTIPSKALRHAVSRIIEFNQNPLYSDHSRLLRSSFADILNHADNVINQQTRMRQGFYERNHCEILQGNARFVDEHTLALDCPDGSVETLTAEKFVIACGSRPYHPTDVDFTHPRIYDSDSILSMHHEPRHVLIYGAGVIGCEYASIFRGMDVKVDLINTRDRLLAFLDQEMSDSLSYHFWNSGVVIRHNEEYEKIEGCDDGVIMHLKSGKKLKADCLLYANGRTGNTDSLALQNIGLETDSRGQLKVNSMYQTAQPHVYAVGDVIGYPSLASAAYDQGRIAAQALVKGEATAHLIEDIPTGIYTIPEISSVGKTEQQLTAMKVPYEVGRAQFKHLARAQIVGMNVGTLKILFHRETKEILGIHCFGERAAEIIHIGQAIMEQKGGGNTIEYFVNTTFNYPTMAEAYRVAALNGLNRLF
  stoichiometry N: 12
